This is an account of results in patent US20040106173A1, “Bot1: target for antifungal agents” (The University of Miami, priority 2001, published 2004).

Series [1] addresses T1, Orb6p fused to the DNA binding domain of GAL4 (pAS1-orb6) (Schizosaccharomyces pombe, UniProt P04386 1-147; O13310 1-469, limits assumed). Briefly: yeast two-hybrid (HIS3 and LACZ reporters). The source says:
(§1) The tea1 gene was fused to the DNA binding domain of GAL4 in a plasmid (pAS1) carrying the trp1 marker. The orb6 gene was fused to the DNA binding domain of GAL4 (pAS1-orb6) and to the GAL4 activator domain (pACT2-orb6). The cDNA library was cloned to the transcription activator domain of GAL4 in a plasmid (pACT) carrying the leu2 marker. Plasmids pAS1, pACT2, pSE1111 (pACT-SNF4), pSE1112 (pAS1-SNF1), pAS1-p53, pAS1-lamin and the S. pombe library prepared in phage λ vectors and plasmids pAS1-SNF1 and pAS1-lamin, both harbored in Y187 strain, were kindly provided by Dr. S. Elledge. The test for cell growth on medium lacking histidine, the beta-galactosidase activation assay and the mating test to detect interaction specificity were performed as described (14). After screening 2×10⁶ transformants, we found five proteins that interact with Orb6p and four that interact with Tea1p in this system, and that were identified multiple times in the screen. Clones containing bot1+ were isolated 22 times in the Orb6p screen and eight times in the Tea1p screen. All clones contained the full-length bot1 sequence, although they usually lacked the initial ATG codon. For beta-galactosidase activation, three independent transformants were assayed for each condition.
(§2) To identify novel components of the Orb6p pathway, a two-hybrid screen was performed to identify cDNAs encoding proteins that interact with Orb6p. One of these, isolated 22 times in this screen, was a novel protein that we named Bot1p. […] The specificity of the positive interaction between Orb6p and Bot1p in the two-hybrid system was controlled by cotransformation of pAS1-orb6 and pACT-bot1 independently with a number of control plasmids. Co-expression of SNF1p or SNF4p was used as positive controls. Orb6p was unable to support the activation of the LACZ-GAL4 and HIS3-GAL4 promoters when co-expressed with GAL4 activation domain fused to SNF4p, or with the GAL4 activation domain (GAD) alone. Bot1p was unable to support the activation of the LACZ-GAL4 and HIS3-GAL4 promoters when co-expressed with the GAL4 binding domain fused to p53, Cdc23p, GAL4 DNA binding domain (GBD) alone, or fused to SNF1p or Cdt1p.

In series [2] the target is Tea1p fused to the DNA binding domain of GAL4 (pAS1) (Schizosaccharomyces pombe, UniProt P04386 1-147; P87061 1-1147). Briefly: yeast two-hybrid (HIS3 and LACZ reporters).
Source text: as §1, §2

The target in series [3] is T1, Orb6p fused to the DNA binding domain …. Briefly: LACZ-GAL4 reporter in strain BY3161, control of the three-hybrid test.
Series [4] has as its target T2, HA-tagged Bot1p (HA3-bot1, pRep41-HA3bot1).
T2 chain: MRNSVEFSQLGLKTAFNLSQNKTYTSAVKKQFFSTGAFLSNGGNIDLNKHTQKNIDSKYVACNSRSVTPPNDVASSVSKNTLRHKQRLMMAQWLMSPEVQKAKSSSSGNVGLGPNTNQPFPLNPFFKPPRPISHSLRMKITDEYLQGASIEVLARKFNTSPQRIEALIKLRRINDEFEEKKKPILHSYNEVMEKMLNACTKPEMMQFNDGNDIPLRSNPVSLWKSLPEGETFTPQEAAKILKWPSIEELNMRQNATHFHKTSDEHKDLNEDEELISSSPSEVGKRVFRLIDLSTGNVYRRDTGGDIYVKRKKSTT

The target in series [5] is T3, HA-tagged Tea1p (nmt1-HA3tea1) (Schizosaccharomyces pombe, UniProt P87061 1-1147).
T3 construct: also called HA-Tea1p
T3 sequence (looked up): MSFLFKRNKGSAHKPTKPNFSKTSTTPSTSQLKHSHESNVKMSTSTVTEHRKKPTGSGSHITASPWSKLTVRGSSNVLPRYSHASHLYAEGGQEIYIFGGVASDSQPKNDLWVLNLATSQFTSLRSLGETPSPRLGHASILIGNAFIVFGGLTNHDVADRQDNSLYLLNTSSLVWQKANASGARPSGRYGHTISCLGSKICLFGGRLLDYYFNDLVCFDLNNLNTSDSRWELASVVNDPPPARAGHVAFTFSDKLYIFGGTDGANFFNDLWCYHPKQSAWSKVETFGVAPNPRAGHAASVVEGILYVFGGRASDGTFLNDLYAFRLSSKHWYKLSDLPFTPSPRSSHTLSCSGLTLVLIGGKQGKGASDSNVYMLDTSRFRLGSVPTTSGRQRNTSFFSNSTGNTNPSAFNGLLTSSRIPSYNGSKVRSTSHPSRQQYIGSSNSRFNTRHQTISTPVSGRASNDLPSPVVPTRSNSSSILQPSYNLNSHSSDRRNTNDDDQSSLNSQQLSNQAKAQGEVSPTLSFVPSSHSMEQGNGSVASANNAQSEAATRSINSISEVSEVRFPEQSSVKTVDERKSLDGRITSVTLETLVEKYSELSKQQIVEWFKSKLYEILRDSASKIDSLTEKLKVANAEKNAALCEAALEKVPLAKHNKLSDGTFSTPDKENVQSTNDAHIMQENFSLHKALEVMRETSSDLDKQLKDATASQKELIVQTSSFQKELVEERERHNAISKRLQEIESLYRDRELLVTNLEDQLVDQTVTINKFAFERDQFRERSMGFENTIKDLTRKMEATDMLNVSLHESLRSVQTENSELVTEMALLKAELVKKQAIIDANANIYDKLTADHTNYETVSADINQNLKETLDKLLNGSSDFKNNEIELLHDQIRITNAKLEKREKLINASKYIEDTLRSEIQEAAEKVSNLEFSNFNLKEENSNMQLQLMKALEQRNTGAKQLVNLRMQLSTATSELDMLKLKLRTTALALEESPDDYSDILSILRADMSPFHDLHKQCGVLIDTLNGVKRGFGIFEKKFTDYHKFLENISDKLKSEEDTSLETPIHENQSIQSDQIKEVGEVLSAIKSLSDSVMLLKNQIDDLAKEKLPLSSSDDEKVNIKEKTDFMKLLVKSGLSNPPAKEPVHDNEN
Kind of series: glutathione beads carrying GST-Orb6p with co-purified HA-Bot1p, incubated with an extract containing HA-Tea1p. The procedure: (§3) Immunoblot analysis was performed using standard methodology. For co-purification experiments, ade6-704 ura4-D18 leu1-32 h-cells co-expressing HA-tagged Bot1p and GST-tagged Orb6p (FV17p), or cells co-expressing HA-tagged Bot1p and GST alone (FV16p) as a control were cultured, for 15 hr at 32° C. in the absence of thiamine. HA₃-bot1 was moderately expressed from an attenuated nmt1 promoter (10). GST-tagged fusions were constructed using the pESP plasmid (Qiagen), which also contains a nmt1 promoter. Cells were then re-suspended in HB buffer and broken using a FastPrep FP120 bead beater (Savant). Extracts were spun at 15K rpm for 15 min. GST-tagged Orb6 or GST alone was purified using glutathione beads (Molecular Probes).
Glutathione beads were washed three times in HB buffer and then eluted. The eluate was run on a 10% polyacrylamide gel, blotted on nitrocellulose, and probed with a primary anti-HA antibody (Covance) or, separately, with a primary anti-GST antibody (Molecular Probes) and with a horseradish peroxidase-conjugated secondary antibody (ECL, Amersham).
To investigate whether Bot1p is able to form a complex with Tea1p and Orb6p, we determined if these proteins co-immunoprecipitate in cell extracts, if they interact in the yeast two-hybrid system, and if they are able to associate in vitro. […]

The target in series [6] is T4, HA-tagged Cdc23p (pRep41-HA3cdc23) (fission yeast, UniProt O42709 1-593).
T4 construct: also called HA-Cdc23p; HA-Cdc23
T4 sequence (looked up): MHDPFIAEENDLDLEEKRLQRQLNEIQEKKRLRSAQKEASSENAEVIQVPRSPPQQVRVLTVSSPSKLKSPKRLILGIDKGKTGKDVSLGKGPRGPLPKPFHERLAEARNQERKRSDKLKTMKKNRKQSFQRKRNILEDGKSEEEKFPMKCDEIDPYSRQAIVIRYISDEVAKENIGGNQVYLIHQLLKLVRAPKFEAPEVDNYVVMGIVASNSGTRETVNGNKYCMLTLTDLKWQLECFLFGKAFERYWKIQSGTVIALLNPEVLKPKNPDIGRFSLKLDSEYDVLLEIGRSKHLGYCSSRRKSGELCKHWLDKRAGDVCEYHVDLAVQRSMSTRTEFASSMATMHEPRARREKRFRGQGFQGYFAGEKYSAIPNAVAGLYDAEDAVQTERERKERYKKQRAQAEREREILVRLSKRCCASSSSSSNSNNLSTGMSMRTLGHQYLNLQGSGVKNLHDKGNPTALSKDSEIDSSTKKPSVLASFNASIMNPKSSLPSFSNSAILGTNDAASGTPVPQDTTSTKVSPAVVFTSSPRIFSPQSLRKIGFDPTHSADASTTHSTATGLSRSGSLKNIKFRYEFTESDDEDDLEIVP
Kind of series: co-purification on glutathione resin from fission yeast extracts, co-expressed. The procedure:
as §3
Glutathione beads were washed three times in HB buffer and then eluted. […]
To confirm this interaction between Bot1p and Orb6p in fission yeast extracts, HA-Bot1p and GST-Orb6p were co-expressed in fission yeast cells, and GST-Orb6p was purified using glutathione-coupled resin. […] Furthermore, neither GST nor GST-Orb6p co-purified with HA-tagged Cdc23p, when co-expressed as an additional control for specificity.

B1: GAL4 activation domain (GAD) alone (other, UniProt P04386 768-881, looked up)
chain: ANFNQSGNIADSSLSFTFTNSSNGPNLITTQTNSQALSQPIASSNVHDNFMNNEITASKIDDGNNSKPLSPGWTDQTAYNAFGITTGMFNTTTMDDVYNYLFDDEDTPPNPKKE
notes: Two-hybrid negative control
In the case of B1, the binding result in series [1] and in series [2] was “no binding” in each case.

B2: GAL4 activation domain fused to SNF4p (pSE1111, pACT-SNF4) (other, UniProt P12904 1-322, looked up, not shown: large carriers)
chain: MKPTQDSQEKVSIEQQLAVESIRKFLNSKTSYDVLPVSYRLIVLDTSLLVKKSLNVLLQNSIVSAPLWDSKTSRFAGLLTTTDFINVIQYYFSNPDKFELVDKLQLDGLKDIERALGVDQLDTASIHPSRPLFEACLKMLESRSGRIPLIDQDEETHREIVVSVLTQYRILKFVALNCRETHFLKIPIGDLNIITQDNMKSCQMTTPVIDVIQMLTQGRVSSVPIIDENGYLINVYEAYDVLGLIKGGIYNDLSLSVGEALMRRSDDFEGVYTCTKNDKLSTIMDNIRKARVHRFFVVDDVGRLVGVLTLSDILKYILLGSN
Consider B2, for which the binding result in series [3] and in series [2] was “no binding” each time.

B3: GST-tagged Orb6p expressed in fission yeast (pESP-GSTOrb6+) (enzyme, Schizosaccharomyces pombe, UniProt O13310 1-469, looked up, not shown: a dimerising Fc or GST)
chain: MDKNDYLHFERNPSLFPKSTLDKVQKTKKYIEHYYKVAVDHAVERNQRRINLEQRLATERGSEERKNRQLRASGEKESQFLRFRRTRLSLEDFSTIKVIGKGAFGEVRLVQKLDTGKIYAMKSLLKTEMFKRDQLAHVKAERDLLVESDSPWVVSLYYAFQDSLYLYLIMEFLPGGDLMTMLINYDTFSEDVTRFYMAECVLAIADVHRMGYIHRDIKPDNILIDRDGHIKLSDFGLSTGFYKQDQSASYMKPRTGNTVKRGQMVDAIWLTMSSKDKMATWKKNRRVMAYSTVGTPDYIAPEIFLQQGYGQDCDWWSLGAIMFECLIGWPPFCSENSHETYRKIINWRETLTFPNDIHLSIEARDLMDRLMTDSEHRLGRGGAIEIMQHPFFTGIDWDHIRETAAPFIPNLKSITDTHYFPVDELEQVPEQPVTQQPASVDPQTLEQTNLAFLGYTYKKFNYLTMKGAL
notes: also called GST-Orb6p
Take B3: in series [4], the “GST-Orb6p autophosphorylation (in vitro protein kinase activity)” value was “The level of GST-Orb6p autophosphorylation was the same for proteins isolated from control and Bot1p-overexpressing cells”; the “in vitro phosphorylation of Bot1p by Orb6p” value was “Orb6p-associated Bot1p was not phosphorylated in vitro by Orb6p”. In addition, the binding result in series [5] is recorded as “no binding”. In addition, the binding result in series [6] is listed as “no binding”.
